What was measured:
[1] = test system: cancer patients having progressive disease; settings: human, in vivo; cited from earlier work
[2] = test system: TNFα; settings: cited from earlier work
[3] = test system: C1300 Muγ mouse neuroblastoma; assay: In vivo tumor thrombosis, C1300 Muγ; set-up: species or system BALB/c nu/nu mice
Excerpt: (§1) Tumor test systems were of four types: i) 3LL mouse lung carcinoma growing subcutaneously in C57BL/6 mice; ii) C1300 mouse neuroblastoma growing subcutaneously in BALB/c nu/nu mice; iii) HT29 human colorectal carcinoma growing subcutaneously in BALB/c nu/nu mice; and iv) C1300 Muγ mouse neuroblastoma growing subcutaneously in BALB/c nu/nu mice. The C1300 Muγ tumor is an interferon-γ secreting transfectant derived from the C1300 tumor (Watanabe et al, 1989).
(§2) To establish tumors, 10^6 to 1.5×10^7 tumor cells were injected subcutaneously into the right anterior flank of the mice. When tumors had grown to various sizes, mice were randomly assigned to different study groups. […] Fab′, or bispecific antibody. Other mice received equivalent quantities IgG, Fab′ or bispecific antibody alone. The injections were performed slowly into one of the tail veins over approximately 45 seconds, usually followed by 200 μl of saline.
(§3) Twenty-four hours after being injected with tTF or immunoglobulin-tTF conjugates, the mice were anesthetized with metophane and were exsanguinated by perfusion with heparinized saline. Tumors and normal tissues were excised and immediately fixed in 3% (v/v) formalin. Paraffin sections were cut and stained with hematoxylin and eosin. Blood vessels having open lumens containing erythrocytes and blood vessels containing thrombi were counted. […]

[4] = test system: A20 lymphoma cells; assay: In vitro coagulation assay on A20 cells with B21-2/10H10 capture antibody; assay type: cell-based, mouse
[5] = test system: HT29 (human colorectal carcinoma) xenograft; assay: HT29 xenograft necrosis after tTF constructs with Factor VIIa; set-up: species or system BALB/c nu/nu mice; settings: mouse, in vivo, iv
[6] = test system: C1300 Muγ tumors; assay: Anti-tumor effects (tumor growth), C1300 Muγ; assay type: in vivo, nu/nu mice; settings: 300 mm^3 at start
Procedure: The tumor test systems were: i) L540 human Hodgkin's disease tumors growing in SCID mice; ii) C1300 Muγ (interferon-secreting) neuroblastoma growing in nu/nu mice; iii) H460 human non-small cell lung carcinoma growing in nu/nu mice. To establish solid tumors, 1.5×10^7 tumor cells were injected subcutaneously into the right anterior flank of SCID or BALB/c nu/nu mice (Charles River Labs., Wilmingham, Mass.). When the tumors had grown to various diameters, mice were assigned to different experimental groups, each containing 4 to 9 mice.
Other mice received equivalent quantities of bispecific antibody alone. The injections were performed over ˜45 seconds into one of the tail veins, followed by 200 μl of saline. The infusions were repeated six days later. Perpendicular tumor diameters were measured at regular intervals and tumor volumes were calculated.
Mice bearing small (300 mm^3) C1300 Muγ tumors were injected intravenously with 16-20 μg tTF219. The treatment was repeated one week later. […] One week after the second treatment with tTF219, tumors were 60% of the size of tumors in mice receiving diluent alone. The greater effectiveness of the second injection probably derives from the greater thrombotic action of tTF219 on vessels in large tumors, observed above. […]

[7] = test system: 3LL mouse lung carcinoma; assay: In vivo tumor thrombosis, 3LL; set-up: species or system C57BL/6 mice; settings: large (>800 mm^3) tumors
Excerpt: as §1, §2, §3

[8] = test system: C1300 mouse neuroblastoma; assay: In vivo tumor thrombosis, C1300; set-up: species or system BALB/c nu/nu mice; settings: large tumors (>1000 mm^3); 24 hours after injection
Excerpt: as §1, §2, §3

[9] = test system: HT29 human colorectal carcinomas; assay: Anti-tumor effects, HT29; assay type: in vivo, Nu/nu mice; settings: large (1200 mm^3) tumors
Procedure: Anti-tumor effects were also observed in mice bearing HT29 human colorectal carcinomas. Nu/nu mice bearing large (1200 mm^3) tumors on their flanks were injected intravenously with tTF219 or PBS (control), and growth of the tumors was monitored each day for 10 days. The tumors in the tTF219 treated mice discontinued growth for about 7 days after treatment, whereas the tumors in mice treated with PBS continued to grow unchecked.

[10] = test system: IL-1α-stimulated bEnd.3 cells; assay: Factor Xa formation by coaguligand on bEnd.3 cells, chromogenic assay; assay type: cell-based, mouse; settings: 10 μg per ml
Procedure: The ability of Annexin V to affect Factor Xa formation induced by coaguligand was determined by a chromogenic assay. […] Annexin V was added at concentrations ranging from 0.1 to 10 μg/ml and cells were incubated for 30 min. before addition of diluted Proplex T. The amount of Factor Xa generated in the presence or absence of Annexin V was determined. Each treatment was performed in duplicate and repeated at least twice.

[11] = test system: L540 Hodgkin tumors; assay: Annexin V inhibition of coaguligand-induced thrombosis in vivo; set-up: species or system SCID mice
Procedure: The ability of Annexin V to inhibit coaguligand-induced thrombosis in vivo was examined in L540 Hodgkin-bearing SCID mice.
Four hours after the last injection mice were anesthetized and perfused with heparinized saline. Tumors were removed, fixed with 4% formalin, paraffin-embedded and stained with hematoxylene-eosin. The number of thrombosed and non-thrombosed blood vessels were counted and the percentage of thrombosis was calculated.

NC(=O)c1nnn(Cc2cc(Cl)c(C(=O)c3ccc(Cl)cc3)c(Cl)c2)c1N [CAI, carboxyamidotriazole]
patients with disease stabilization [1]: 49%

Cc1ccc2c(=O)c3cccc(CC(=O)O)c3oc2c1C [DMXAA]
fold less effective than endotoxin in inducing TNFα [2]: 20 fold

B1: tTF219: residues 1-219 of TF plus an additional glycine at the N-terminus (protein)
chain: GSGTTNTVAAYNLTWKSTNFKTILEWEPKPVNQVYTVQISTKSGDWKSKCFYTTDTECDLTDEIVKDVKQTYLARVFSYPAGNVESTGSAGEPLYENSPEFTPYLETNLGQPTIQSFEQVGTKVNVTVEDERTLVRRNNTFLSLRDVFGKDLIYTLYYWKSSSSGKKTAKTNTNEFLIDVDKGENYCFSVQAVIPSRTVNRKSTDSPVECMGQEKGEFRE
thrombosis of tumor vessels ([3]; 24 hours after injection): practically all vessels in all regions of the tumor were thrombosed
effect on vessels in small tumors ([3]; small (<500 mm^3) C1300 and C1300 Muγ): largely unaffected
coagulation time ([4]; 10^−10 M tTF219, absence of Factor VIIa): 60 s
coagulation time ([4]; 10^−10 M tTF219, presence of 13.5 nM Factor VIIa): 20 s
necrosis, average area as percentage of total tumor area [5]: some necrosis
tumor size relative to mice receiving diluent alone ([6]; 16-20 μg i.v., repeated one week later, one week after the second treatment): 60%
tumor size relative to controls receiving diluent alone ([6]; treatment repeated 6 days later, fourteen days after the first injection): 75%
tumor vessels thrombosed, average [7]: 62%
thrombosis of tumor vessels [8]: virtually all vessels were thrombosed
time tumors discontinued growth after treatment [9]: about 7 days

B2: Annexin V: binds to PS with high affinity (protein, UniProt P08758 2-320, looked up)
Annexin A5: AQVLRGTVTDFPGFDERADAETLRKAMKGLGTDEESILTLLTSRSNAQRQEISAAFKTLFGRDLLDDLKSELTGKFEKLIVALMKPSRLYDAYELKHALKGAGTNEKVLTEIIASRTPEELRAIKQVYEEEYGSSLEDDVVGDTSGYYQRMLVVLLQANRDPDAGIDEAQVEQDAQALFQAGELKWGTDEEKFITIFGTRSVSHLRKVFDKYMTISGFQIEETIDRETSGNLEQLLLAVVKSIRSIPAYLAETLYYAMKGAGTDDHTLIRVMVSRSEIDLFNIRKEFRKNFATSLYSMIKGDTSGDYKKALLLLCGEDD
inhibition of factor Xa production [10]: 58%
effect of pre-treatment on coaguligand-induced anti-tumor effects ([11]; 100 μg Annexin V 2 hours before 40 μg coaguligand): completely abolished
effect on tumor morphology ([11]; 100 μg Annexin V alone): did not alter tumor morphology

Reference: patent US20030139374A1 (University of Texas, published 2003)
